Bridges are numbered along the chain shown (N, C = ends). Where no end group is shown, it is not given here.
B1: mAb1133 (antibody, V domains shown)
VH: DVQLQGSGPSLVKPSQSLSLTCTVTGYSITSDYAWNWIRQFPGNKLEWMGYISYSGNTRYNPSLRSRISITRDTSKNQFFLQLNSVTTEDTATYYCATAGRGFPYWGQGTLVTVSA
VL: DILMTQSPSSMSVSLGDTVNITCHSSQDINSNIGWLQQKPGKSFKGLIYHGTNLDDGVPSRFSGSGSGADYSLTISSLESEDFADYYCVQYGQFPWTFGGGTKLEIKR
notes: murine IgG2a; also called 1133 antibody; clone 1133

Experiments:
[1] = target: wild-type epidermal growth factor receptor (wtEGFR) (human) (UniProt P00533); experiment: Scatchard, A431 cells
[2] = target: C271A/C283A EGFR mutant (human) (UniProt P00533); experiment: FACS, Ba/F3 cells, four clones; reference M2 anti-FLAG
wtEGFR-FLAG (human) = wtEGFR-FLAG (human) (UniProt P00533); experiment: FACS, Ba/F3 cells; reference M2 anti-FLAG
[3] = target: T1, EGFR peptide 287-302 (mAb806 peptide epitope) (human, disulfide 1-16); experiment: BIAcore, immobilised peptide, antibody 200 nM
T1 peptide: CGADSYEMEEDGVRKC

Molecule	receptors per cell (receptors per cell) [1]	ratio of antibody binding mAb 528/M2 (ratio of median fluorescence) [2]	ratio of antibody binding mAb 528/M2 (ratio of median fluorescence) (wtEGFR-FLAG (human))	maximal binding (RU) [3]
528 antibody	2e+06	1.08	1.37	
B1				800 RU

From patent US20100056762A1 (published 2010)
